Experimental data: the supplement of paper PMC10567573
± gives the standard deviation.

Experiment: protein stability index of a GFP-peptide fusion (GPS, HEK-293T) (PSI 1-6); higher = more stable
[1] = treatment: DMSO, c terminus: a fixed tail appended
[2] = treatment: MLN4924 1 uM, 8 h, c terminus: a fixed tail appended
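Further: 24-mer peptide tiles fused after GFP, lentivirally expressed, FACS-sorted into six equal bins by GFP/DsRed ratio, decoded by Illumina sequencing, PSI is the read-weighted mean bin number.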

Sequence | protein stability index [1] | protein stability index [2] | protein stability index (treatment: DMSO, c terminus: native) | protein stability index (treatment: MLN4924 1 uM, 8 h, c terminus: native)
ELVALIPHSDQRLRPQRTKQYVLL [TMEM106C] | 2.02 ± 0.33 | 2.17 ± 0.22 |  | 
EMGGSEGIVESIQIMKEGKATASE [NETO1] | 5.58 ± 0.21 | 5.611 ± 0.038 |  | 
EMQIENLKEELAYLKKNHEEEMNA [KRT17] | 4.67 ± 0.24 | 4.88 ± 0.33 |  | 
ENKQVVIIHHMRLQAKALQLIVTA [INTS4] | 3.01 ± 0.56 | 3.03 ± 0.44 |  | 
ENLSVPVIGALLRFNQAILVSRHD [LPCAT4] | 2.43 ± 0.61 | 2.5 ± 0.34 |  | 
EPFPSSDDSPRSALAAATAAAAAA [SPAG8] | 5.2 ± 0.16 | 5.05 ± 0.18 |  | 
EPGNFIPLFTPQSPVTATLSDEDD [CDC25A] | 5.56 ± 0.18 | 5.69 ± 0.13 |  | 
EPPPPLHNNNNNCEENEQSLPPPA [BNIP3L] | 5.51 ± 0.27 | 5.68 ± 0.13 |  | 
EPSFAQFSQEIGLASLGASEEAVQ [TPH1] | 5.17 ± 0.61 | 4.99 ± 0.37 |  | 
EPSIAPTSCAGNLPSRPPPLLSPL [RSPH3] | 3.72 ± 0.2 | 3.83 ± 0.14 |  | 
EQERRLSEARLSQRDLSPTAEDAE [FCHSD1] | 5.41 ± 0.23 | 5.6 ± 0.26 |  | 
EQKAAGSASAKRVWNMTATRPKKM [FATE1] | 4.43 ± 0.16 | 4.39 ± 0.22 |  | 
EQLIEAISNGDFESYTKMCDPGMT [CAMK2A] | 3.92 ± 0.28 | 3.76 ± 0.44 |  | 
EQSSCTMTPDIHELVENIKSVLKS [FAM189A2] | 2.19 ± 0.29 | 2.4 ± 0.37 |  | 
ERIDCQGIPPSSKDKLGVWVYKNK [KLHDC2] | 3.75 ± 0.23 | 3.64 ± 0.34 |  | 
ERILGPSHPDTSYYIRYRGAVYAD [FEM1A] | 2.94 ± 0.2 | 2.92 ± 0.29 |  | 
ERLQAAGTDSAGPKTVPSHVFSEL [ELOA2] | 4.06 ± 0.15 | 4.4 ± 0.14 |  | 
ERTQLRLESLEDTHIMKGEDDALS [TRIB1] | 5.27 ± 0.21 | 5.34 ± 0.41 |  | 
ERVTVAKLTLENFYSNLILQHEER [STK38L] | 2.85 ± 0.28 | 2.99 ± 0.31 |  | 
ESACSSDSLDEARSSGSEGTPADT [PWWP2B] | 5.7 ± 0.11 | 5.5 ± 0.21 |  | 
ESLQELRLLLAGAEVQAKLENAEV [HES6] | 2.84 ± 0.41 | 3.15 ± 0.4 |  | 
ETPQPSPPGGSGSEPYKLLPGAVA [HNF4A] | 5.06 ± 0.21 | 4.92 ± 0.11 |  | 
ETQLKACASFIRTRLLLQFTQPQQ [C8orf76] | 2.93 ± 0.65 | 2.86 ± 0.88 |  | 

Sequence | protein stability index [1] | protein stability index [2] | protein stability index (treatment: DMSO, c terminus: native) | protein stability index (treatment: MLN4924 1 uM, 8 h, c terminus: native)
ETREYAPPSRGHGYRDYGHSRRHE [RBMY1A1] | 4.58 ± 0.35 | 4.71 ± 0.13 |  | 
EVAEQLELERIGPQHQAGSDSLLT [CNOT7] | 4.9 ± 0.14 | 4.85 ± 0.15 |  | 
EVDVQEAGAGWWVGAAYASLRRRG [TRIM14] | 3.4 ± 0.28 | 3.38 ± 0.4 |  | 
EVILGDIWKLNLQTFQWVKLPATM [KLHDC10] | 2.51 ± 0.51 | 2.21 ± 0.3 |  | 
EWASHTAALTNKHSQELTNEKEKA [SASS6] | 5.574 ± 0.002 | 5.39 ± 0.19 |  | 
EYIDPETKKHIPYREHKSLTGTAR [CSNK1G1] | 4.15 ± 0.28 | 4.08 ± 0.42 |  | 
FAESLQCKVDCEANLTPNVGGYFV [P3H4] | 2.22 ± 0.9 | 2.42 ± 0.65 |  | 
FALIAVVFLASGAVSVMKKCRKLE [SLC19A2] | 3.18 ± 0.35 | 3 ± 0.29 |  | 
FATPEREMRISESAASGARFPLDS [PCDHGC5] | 4.44 ± 0.11 | 4.57 ± 0.3 |  | 
FDIARIERCNQLLRALKLVITALK [ZER1] | 2.33 ± 0.6 | 2.41 ± 0.37 |  | 
FDVHPNELTNGVINAAFMLLFKDL [SNAP91] | 2.84 ± 0.81 | 2.24 ± 0.41 |  | 
FEREPSTSDLGTTDVQKKKLVDAI [RIPK4] | 4.62 ± 0.084 | 4.87 ± 0.29 |  | 
FETQLKTLCQFPETLLGDPKRRMR [KCNA3] | 3.54 ± 0.35 | 3.65 ± 0.28 |  | 
FFAFLHCWLNAFAEMLRFGDRMFY [SOAT2] | 3.14 ± 0.56 | 3.44 ± 0.23 |  | 
FGGGYGGGLGGGYGGGLGGGFGGG [KRT13] | 2.37 ± 1.4 | 2.88 ± 0.15 |  | 
FGGQNAHNQIAIYAHQPRTADEIP [FUT8] | 3.43 ± 0.23 | 3.65 ± 0.33 |  | 
FGGVIAFSSYNKQDNNCHFDAALV [SLC6A17] | 2.42 ± 0.32 | 2.43 ± 0.45 |  | 
FGHVMHQICAQVSFFFPPVNLPIS [NLN] | 2.71 ± 0.69 | 3.42 ± 0.31 |  | 
FGTQVENFSTFIKCIFTQFRIILG [PKD2L1] | 2.35 ± 0.058 | 2.24 ± 0.32 |  | 
FGYRPYDKNISPRENILVSLGAVG [SCD] | 2.03 ± 0.44 | 2.75 ± 0.53 |  | 
FHTMDELVEHYKKAPIFTSEHGEK [NCK2] | 3.88 ± 0.35 | 3.97 ± 0.27 |  | 
FKDEYKSENIKLREENEKLRLENS [CCDC89] | 5.25 ± 0.15 | 5.2 ± 0.15 |  | 
FKRSVRRNLSYTCRANRNCPIDQH [NR2F2] | 2.71 ± 0.17 | 2.63 ± 0.33 |  | 

Sequence | protein stability index [1] | protein stability index [2] | protein stability index (treatment: DMSO, c terminus: native) | protein stability index (treatment: MLN4924 1 uM, 8 h, c terminus: native)
FLCVLMSDWFNFHGHMCIAFELLG [CLK3] | 3.2 ± 0.3 | 3.11 ± 0.42 |  | 
FLELAVGQRIRRGSIGVWHYICPR [SLC6A17] | 2.99 ± 0.97 | 2.18 ± 0.5 |  | 
FLGSTEVEQPKGTEVVRDAVRKLK [GULP1] | 4.62 ± 0.24 | 4.62 ± 0.16 |  | 
FLIPMLEMVPEKRASAGECLRHPW [SRPK2] | 2.33 ± 0.26 | 2.2 ± 0.12 |  | 
FLIVTVAWAAHTRLFQVVGKTDDT [TMEM175] | 2.86 ± 0.12 | 3.12 ± 0.23 |  | 
FLVSTHTGEVRTARALLEDDSDTQ [PCDHGC5] | 4.63 ± 0.22 | 4.76 ± 0.24 |  | 
FLYVTGHIKEILITAGGENVPPIP [ACSBG2] | 2.78 ± 0.93 | 2.81 ± 1.1 |  | 
FPKNRVLEGVIDRYQQSKAAALKC [TRIM9] | 2.78 ± 0.14 | 3.2 ± 0.19 |  | 
FQESASTPETRAKFTQDNLCRAQR [TEKT4] | 4.48 ± 0.18 | 4.4 ± 0.25 |  | 
FQKTKNLLTGETEADPEMIKRAED [CLPTM1] | 5.01 ± 0.42 | 5.31 ± 0.17 |  | 
FRLPGLSRREREPEPPAAVDFLEP [FCHO1] | 4.24 ± 0.3 | 4.31 ± 0.33 |  | 
FSALYWFNYELVKSWLNGFRPKDQ [SLC25A39] | 2.2 ± 0.39 | 2.61 ± 0.92 |  | 
FSDDCDLPSAQDINRLVGLQNTYM [GLT8D2] | 3.68 ± 0.26 | 3.66 ± 0.11 |  | 
FSETHADPHNSRRGFFFSHVGWLL [SCD] | 2.66 ± 0.29 | 2.15 ± 0.21 |  | 
FSHDLTLERKCEKRSVYIDARDEE [ZC3H15] | 4.47 ± 0.24 | 4.64 ± 0.34 |  | 
FSKASDSLQLVFGIELMEVDPIGH [MAGEA6] | 2.27 ± 0.56 | 2.42 ± 0.41 |  | 
FTLKEEKPKMYFMTMIVSLAAVAW [ARL6IP1] | 3.4 ± 0.81 | 2.8 ± 0.86 |  | 
FVIGHLKGAPASWWNHMHFQHHAK [FADS1] | 2.65 ± 0.89 | 2.24 ± 0.47 |  | 
FVKILKDFPEEDDPTNWLRCYYYE [NCF4] | 2.25 ± 0.28 | 2.55 ± 0.6 |  | 
FWNFKQMWDSKKIGLRQHHCRKCG [WDFY2] | 2.34 ± 0.28 | 2.66 ± 0.45 |  | 
FWYREALDISDSISESGGLNWKMT [SLC6A17] | 2.17 ± 0.34 | 1.92 ± 0.32 |  | 
FYSTSSGLANGLQLLCPWAPLSGP [VENTX] | 2.88 ± 0.4 | 2.54 ± 0.55 |  | 
GADGVMRTMAPEKLLKSMPILQGQ [SNAP91] | 3.76 ± 0.32 | 3.77 ± 0.28 |  | 

Sequence | protein stability index [1] | protein stability index [2] | protein stability index (treatment: DMSO, c terminus: native) | protein stability index (treatment: MLN4924 1 uM, 8 h, c terminus: native)
GCMLIELALRGRLQLEACGMRRKS [GOLPH3] | 1.83 ± 0.31 | 2.25 ± 0.28 |  | 
GDPLNCHSYLSGYISLLLRAEPYP [NR2F2] | 2.76 ± 0.82 | 2.71 ± 0.65 |  | 
GDWARLLEQMGALAVRGSRREREL [ZBED3] | 3.13 ± 0.51 | 2.89 ± 0.3 |  | 
GEESSKAKEVTIAKADTTSTVTPV [EHMT1] | 5.55 ± 0.27 | 5.45 ± 0.078 |  | 
GEQEFEALMRMLDNLGYRTGYPYR [ADD1] | 2.15 ± 0.3 | 2.26 ± 0.49 |  | 
GEREAIQKSVTRSCLLEEEEESGE [POP5] | 5.53 ± 0.33 | 5.65 ± 0.18 |  | 
GEVLSYLELAQFHNAHQLAAWCLH [RHOBTB1] | 2.7 ± 0.81 | 2.35 ± 0.25 |  | 
GFTDRREARKYASNLLKAGFIRHT [DVL3] | 2.66 ± 0.28 | 2.71 ± 0.32 |  | 
GGAGSSEDDAQSRRDEQDDDDKGD [GOLPH3] | 5.57 ± 0.24 | 5.69 ± 0.28 |  | 
GGDKLETMPLYLEDDIRPDIKDDI [SCD] | 4.9 ± 0.4 | 5 ± 0.34 |  | 
GGFDGSRRHTSMERYDPNIDQWSM [KLHL12] | 3.76 ± 0.28 | 3.89 ± 0.45 |  | 
GGFGSMLRALGAQIEKTTNREACR [SDE2] | 3.27 ± 0.41 | 3.34 ± 0.13 |  | 
GGFLSESKDCKPPVYLLLELEDKD [MYBL2] | 3.99 ± 0.21 | 4.17 ± 0.32 |  | 
GGMLNFMMHDQRTGPAWNVLMWTM [SOAT2] | 2.49 ± 1.2 | 2.07 ± 0.73 |  | 
GGRKGRTLLLQGHHDKVQSLCYLQ [WDFY1] | 2.54 ± 0.095 | 2.73 ± 0.32 |  | 
GGSKYLIYRRYRQFHALQSKLEER [NCF4] | 2.45 ± 0.35 | 2.45 ± 0.33 |  | 
GGSRGAPGLLMAVGQDLYCYSYS [DCAF4] |  |  | 3.16 ± 0.42 | 3.1 ± 1.5
GGVMYISGGITHDTFQKELMCFDP [KLHL13] | 2.23 ± 0.48 | 2.33 ± 0.54 |  | 
GIFPLSFVKILKDFPEEDDPTNWL [NCF4] | 2.6 ± 0.28 | 2.82 ± 0.33 |  | 
GIHPLSSSEVDELIHKADEVTLSE [PALM] | 5.35 ± 0.2 | 5.23 ± 0.12 |  | 
